Results: patent US20220356237A1 (UNIVERSITY OF MIAMI, published 2022)
Substitutions are numbered along the chain they refer to.

B1: aflibercept (Fc fusion, UniProt P17948 129-230, looked up)
chain: SDTGRPFVEMYSEIPEIIHMTEGRELVIPCRVTSPNITVTLKKFPLDTLIPDGKRIIWDSRKGFIISNATYKEIGLLTCEATVNGHLYKTNYLTHRQTNTIIDVVLSPSHGIELSVGEKLVLNCTARTELNVGIDFNWEYPSSKHQHKKLVNRDLKTQSGSEMKKFLSTLTIDGVTRSDQGLYTCAASSGLMTKKNSTFVRVHEK
notes: also called EYLEA; not shown: human IgG Fc
B2: anti-Scg3 mAb Clone 49 (antibody, V domains shown)
VH: EVKLEESGAELVKPGASVKLSCTASGFNIKDTYMHWVKQRPEQGLEWIGRIDPANGDTKYDPKFQGKATITADTSSNTAYLQLSSLTSEDTAVYYCARNGPGTPWFAYWGQGTLVTVSA
VL: DIQMTQSSSYLSVSLGGRVTITCKASDHINNWLTWYQQKPGNAPRLLISGATSLETGVPSRFSGSGSGKDYTLSITSLQTEDVATYYCQQYWSTPFTFGSGTKLEIKR
notes: also called Clone 49 mAb; CLONE 49 Monoclonal Antibody
B3: anti-Scg3 mAb Clone 153 (antibody, V domains shown)
VH: GRKLQESGPELLKPGASVKISCKTSGYIFSTSWMNWVKQRPGQGLEWIGRIYPGDGHTNYNGKFKDKATLTADKSSSTAYMQLSSLTSVDSAVYFCARSADGYFFVYWGQGTLVTVSA
VL: DIVLTQTPLSLPVSLGDQASISCRSSQSIVHSNGNTYLEWYLQKPGQSPKLLIFKVSKRFSGVPDRFSGSGSGTDFTLKISRVEAEDLGVYHCFQGSHVPPTFGGGTKLEIKR
notes: Monoclonal antibody
B4: anti-Scg3 mAb Clone 78 (antibody, V domains shown)
VH: B3 VH with G1E, R2V, K3Q, E6Q, T31A, F64I, Y107D
VL: B3 VL with L4M, L9V, S61Y
notes: also called Clone 78 mAb; CLONE 78 Monoclonal Antibody
B5: anti-Scg3 mAb Clone 190 (antibody, V domains shown)
VH: B3 VH with G1E, R2V, Q5E, T31S, L113P
VL: B3 VL with L4M, T7S, E84G, V90I, H92Y
notes: Monoclonal antibody; also called CLONE 190 Monoclonal Antibody
B6: anti-Scg3 mAb Clone 162 (antibody, V domains shown)
VH: B3 VH with G1P, R2G, L4A, Q5E, L11M, V89A
VL: B3 VL with S28N, V30I
notes: Monoclonal antibody

Legend:
[1] = molecular target: T1, human secretogranin III (Scg3) (human, UniProt Q8WXD2 20-468, limits assumed); experiment: method not given; protein pulldown with protein G beads at 5 ug/ml each is described in paragraph 100
T1 construct: also called human Scg3; 1B1075
T1 sequence (Q8WXD2 20-468 limits assumed): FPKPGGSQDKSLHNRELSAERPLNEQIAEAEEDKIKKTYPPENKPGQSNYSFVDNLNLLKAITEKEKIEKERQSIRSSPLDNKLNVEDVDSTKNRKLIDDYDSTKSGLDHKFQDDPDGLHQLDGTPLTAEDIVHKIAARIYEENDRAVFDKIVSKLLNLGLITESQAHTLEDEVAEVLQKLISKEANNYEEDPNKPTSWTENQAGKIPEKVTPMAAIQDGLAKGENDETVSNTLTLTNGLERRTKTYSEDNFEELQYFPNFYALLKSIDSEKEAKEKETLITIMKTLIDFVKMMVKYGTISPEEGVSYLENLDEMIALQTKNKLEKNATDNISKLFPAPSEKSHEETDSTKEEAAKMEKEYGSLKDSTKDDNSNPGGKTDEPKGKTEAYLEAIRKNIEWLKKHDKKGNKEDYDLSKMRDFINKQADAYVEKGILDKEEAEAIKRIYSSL
Protocol: Protein pulldown. Scg3 (5 μg/ml) was incubated with aflibercept, VEGFR-Fc or VEGFR2-Fc (5 μg/ml) in PBS solution containing 0.5% Triton X-100 and BSA (1 mg/ml) for 1 h at 4° C. Protein G beads (20 μl) were added and incubated at 4° C. for 30 min with end-over-end rotation. The beads were washed three times with PBS by centrifugation, eluted with low pH buffer (100 mM glycine, pH 2.7) and analyzed by Western blot using anti-Scg3 pAb.

[2] = molecular target: T1, human secretogranin III (Scg3); experiment: ELISA on immobilised Scg3 and Octet RED96
Protocol: (§1) Competitive binding to Scg3 was evaluated for Clone 49 and the other anti-Scg3 mAbs described in Table 1. Anti-Scg3 scFv Clone 49 (FIG. 3D) and Clone 78 (FIG. 3E) were expressed and purified. […] Bound scFv was detected by ELISA assay. Binding assays were also performed using an Octet RED96 system (Pall ForteBio), as described in Estep et al., MAbs 2013; 5:270-278.

[3] = molecular target: T1, human secretogranin III (Scg3); experiment: competition ELISA (excess mAb against Clone 78 scFv) and Octet RED96
Protocol: as §1

Row | Binder | binding result [2] | binding result [3] | other results
1 | B1 | – | – | binding result [1]: no binding
2 | B2 | binds | – | –
3 | B3 | – | binds | –
4 | B4 | binds | – | –
5 | B5 | – | binds | –
6 | B6 | – | binds | –
